{"source": "IntAct's records for PubMed 21785459", "parents": {"B1": {"name": "Parkinson disease protein 7 (Homo sapiens), Q99497 (parent)", "chain": "MASKRALVILAKGAEEMETVIPVDVMRRAGIKVTVAGLAGKDPVQCSRDVVICPDASLEDAKKEGPYDVVVLPGGNLGAQNLSESAAVKEILKEQENRKGLIAAICAGPTALLAHEIGFGSKVTTHPLAKDKMMNGGHYTYSENRVEKDGLILTSRGPGTSFEFALAIVEALNGKEVAAQVKAPLVLKD"}}, "data": [{"variants_of": "B1", "details": "with fadd_human FADD", "values": [{"variant": "L166P", "effect of a mutation on the interaction": "disrupting interaction"}]}, {"variants_of": "B1", "details": "with fadd_human FADD", "remark": "another data set of the same source", "values": [{"variant": "L166A", "effect of a mutation on the interaction": "decreasing interaction"}]}]}
